Reference: US20150065436A1, “INHIBITING INTERACTION BETWEEN HIF-1ALPHA AND p300/CBP WITH HYDROGEN BOND SURROGATE-BASED HELICES” (UNIVERSITY OF SOUTHERN CALIFORNIA, priority 2013, published 2015)
code X = not defined here

Experiments:
[1] = molecular target: coactivator protein p300 (or the homologous CREB binding protein, CBP) (human) (UniProt Q09472); test: cell-based or functional assay
[2] = molecular target: p300-CH1 (cysteine-histidine rich 1 domain of human coactivator protein p300, amino acid residues 323-423) (human) (UniProt Q09472); test: tryptophan fluorescence spectroscopy; reference peptide 3
Sequence of p300-CH1 (cysteine-histidine rich 1 domain of human coactivator protein p300, amino acid residues 323-423) (human) (Q09472 323-423 limits assumed): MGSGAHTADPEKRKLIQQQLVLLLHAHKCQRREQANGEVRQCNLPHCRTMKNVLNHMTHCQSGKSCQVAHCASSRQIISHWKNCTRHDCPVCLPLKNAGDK

[3] = molecular target: p300-CH1 (cysteine-histidine rich 1 domain of human coactivator protein p300, amino acid residues 323-423) (human) (UniProt Q09472); test: tryptophan (Trp403) fluorescence spectroscopy, peptide titrated into 1 µM 15N-labeled p300-CH1
[4] = molecular target: p300-CH1 (cysteine-histidine rich 1 domain of human coactivator protein p300, amino acid residues 323-423) (human) (UniProt Q09472); test: fluorescence polarization competition; HBS 1 added to preformed complex of 300 nM p300-CH1 and 15 nM Flu-HIF C-TAD
[5] = molecular target: p300-CH1 (cysteine-histidine rich 1 domain of human coactivator protein p300, amino acid residues 323-423) (human) (UniProt Q09472); test: fluorescence polarization competition: HBS 1 added to the preformed complex of p300-CH1 (300 nM) and Flu-HIF C-TAD (15 nM); displaced ligand: fluorescein-labeled HIF-1α C-TAD786-826
[6] = molecular target: coactivator protein p300 (or the homologous CREB binding protein, CBP) (human), Q09472; test: cell-based or functional assay
Sequence of coactivator protein p300 (or the homologous CREB binding protein, CBP) (human), Q09472 (Q09472 2-2414 limits assumed): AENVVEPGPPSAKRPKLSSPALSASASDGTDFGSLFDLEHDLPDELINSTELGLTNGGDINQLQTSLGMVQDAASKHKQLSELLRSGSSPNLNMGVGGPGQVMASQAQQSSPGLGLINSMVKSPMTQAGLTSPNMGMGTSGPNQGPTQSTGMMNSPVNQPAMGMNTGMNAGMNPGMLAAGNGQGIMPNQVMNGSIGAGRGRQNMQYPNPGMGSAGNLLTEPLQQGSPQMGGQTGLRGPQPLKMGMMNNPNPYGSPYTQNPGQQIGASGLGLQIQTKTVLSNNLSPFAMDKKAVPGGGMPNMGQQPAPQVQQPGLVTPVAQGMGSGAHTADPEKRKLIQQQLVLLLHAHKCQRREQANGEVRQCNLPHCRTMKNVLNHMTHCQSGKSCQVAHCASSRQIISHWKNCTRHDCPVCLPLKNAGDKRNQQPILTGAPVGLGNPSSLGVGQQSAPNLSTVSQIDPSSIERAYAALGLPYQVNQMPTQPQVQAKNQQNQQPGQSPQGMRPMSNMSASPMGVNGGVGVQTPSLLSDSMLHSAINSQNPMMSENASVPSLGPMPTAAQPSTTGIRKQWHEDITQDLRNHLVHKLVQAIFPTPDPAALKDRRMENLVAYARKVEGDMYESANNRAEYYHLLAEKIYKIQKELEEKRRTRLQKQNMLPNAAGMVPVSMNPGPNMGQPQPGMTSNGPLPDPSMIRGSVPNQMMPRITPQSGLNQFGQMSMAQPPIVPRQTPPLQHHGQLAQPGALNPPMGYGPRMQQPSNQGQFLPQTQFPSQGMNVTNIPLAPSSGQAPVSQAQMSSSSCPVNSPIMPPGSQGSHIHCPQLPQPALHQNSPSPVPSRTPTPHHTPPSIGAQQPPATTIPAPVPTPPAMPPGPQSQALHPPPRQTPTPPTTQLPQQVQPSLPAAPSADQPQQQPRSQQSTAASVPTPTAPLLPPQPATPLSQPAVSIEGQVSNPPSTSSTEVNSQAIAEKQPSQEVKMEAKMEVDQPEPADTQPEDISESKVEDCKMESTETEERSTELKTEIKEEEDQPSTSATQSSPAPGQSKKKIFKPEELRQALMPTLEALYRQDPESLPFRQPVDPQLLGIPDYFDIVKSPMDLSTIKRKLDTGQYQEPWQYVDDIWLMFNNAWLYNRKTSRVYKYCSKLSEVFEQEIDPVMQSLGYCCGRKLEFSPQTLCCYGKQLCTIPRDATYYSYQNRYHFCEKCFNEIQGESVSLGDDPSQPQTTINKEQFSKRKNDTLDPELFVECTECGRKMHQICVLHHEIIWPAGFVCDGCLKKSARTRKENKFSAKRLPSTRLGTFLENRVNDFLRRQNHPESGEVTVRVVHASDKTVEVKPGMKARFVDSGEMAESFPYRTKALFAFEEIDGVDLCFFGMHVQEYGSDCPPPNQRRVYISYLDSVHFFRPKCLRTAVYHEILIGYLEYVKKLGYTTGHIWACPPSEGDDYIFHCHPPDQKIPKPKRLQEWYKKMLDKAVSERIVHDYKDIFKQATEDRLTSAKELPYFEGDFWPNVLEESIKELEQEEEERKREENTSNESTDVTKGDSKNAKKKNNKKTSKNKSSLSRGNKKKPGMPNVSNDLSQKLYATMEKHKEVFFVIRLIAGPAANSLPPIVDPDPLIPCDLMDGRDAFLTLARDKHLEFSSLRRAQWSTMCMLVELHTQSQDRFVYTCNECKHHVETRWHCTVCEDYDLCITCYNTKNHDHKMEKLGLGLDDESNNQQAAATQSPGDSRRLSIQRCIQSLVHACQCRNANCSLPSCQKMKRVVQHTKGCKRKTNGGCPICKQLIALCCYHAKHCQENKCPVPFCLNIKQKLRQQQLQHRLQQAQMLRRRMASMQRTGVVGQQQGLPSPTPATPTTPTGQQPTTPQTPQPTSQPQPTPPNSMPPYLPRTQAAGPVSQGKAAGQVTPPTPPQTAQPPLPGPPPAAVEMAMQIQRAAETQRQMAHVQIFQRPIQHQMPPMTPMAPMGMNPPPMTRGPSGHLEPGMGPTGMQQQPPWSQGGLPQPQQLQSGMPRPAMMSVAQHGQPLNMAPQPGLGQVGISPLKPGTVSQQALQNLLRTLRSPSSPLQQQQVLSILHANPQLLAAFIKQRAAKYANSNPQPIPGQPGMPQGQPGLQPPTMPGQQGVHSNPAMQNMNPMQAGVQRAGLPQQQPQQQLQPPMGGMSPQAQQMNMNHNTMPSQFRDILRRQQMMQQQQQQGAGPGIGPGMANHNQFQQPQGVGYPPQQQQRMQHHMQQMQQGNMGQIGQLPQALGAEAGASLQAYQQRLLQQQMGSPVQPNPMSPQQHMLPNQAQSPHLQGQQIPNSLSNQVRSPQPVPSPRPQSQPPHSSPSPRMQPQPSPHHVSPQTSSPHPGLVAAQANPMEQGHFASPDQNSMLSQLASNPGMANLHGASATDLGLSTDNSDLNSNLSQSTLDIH

[7] = molecular target: p300-CH1 (cysteine-histidine rich 1 domain of human coactivator protein p300, amino acid residues 323-423) (human), Q09472; test: tryptophan (Trp403) fluorescence spectroscopy, peptide titrated into 1 µM 15N-labeled p300-CH1
Sequence of p300-CH1 (cysteine-histidine rich 1 domain of human coactivator protein p300, amino acid residues 323-423) (human), Q09472 (Q09472 323-423 limits assumed): as the sequence (Q09472 323-423 limits assumed) above

Sequence of coactivator protein p300 (or the homologous CREB binding protein, CBP) (human) (Q09472 2-2414 limits assumed): as the sequence (Q09472 2-2414 limits assumed) above

B1: HBS 1 (peptide)
chain: {code X}-ELARALDQ-NH2
modifications: not fully specified (residue 3, bridges); reading uncertain; also: hydrogen bond surrogate constraint, places not given here
Work on B1 yielded an expression levels of VEGF, qRT-PCR, hypoxic HeLa cells (% reduction at 10 µM) [1] of 50, an expression levels of VEGF, qRT-PCR, hypoxic HeLa cells (% reduction at 50 µM) [1] greater than 60 and an inhibition of SLC2A1 (GLUT1) expression, qRT-PCR, hypoxic HeLa cells [1] of 50 to 60%. For the same binder, the luciferase expression, HRE-luciferase reporter in MDA-MB-231-HRE-Luc cells under hypoxia (% reduction at 50 µM) [1] was 25, the fold increase in binding affinity over peptide 3 [2] was 9 fold and the Kd [3] was 0.69 µM. For the same binder, the Ki [4] was 3.5 µM and the IC50 (read off the curve) [5] was 10 µM.

ELARALDQ (modifications not checked) [Peptide 3] was tested, and the downregulation of SLC2A1 and LOX expression, qRT-PCR, hypoxic HeLa cells [6] was 25% and the Kd [7] was 6.06 µM.
